Stoichiometry N data for one substance are collected here from PMC12756740, “A GH42 β‑Galactosidase from the Human Isolate Bifidobacterium breve DSM 20213: Biochemical and Transgalactosylation Properties Reveal the Potential for Galacto-oligosaccharides Synthesis” (ACS Omega, 2025).

The term stoichiometry N denotes a count of units in the complex or per binding partner.

The assay addresses GH42 β-galactosidase Bbreβgal-III from Bifidobacterium breve DSM 20213 (Bifidobacterium breve DSM 20213). The experiment in a line: SEC-MALS; OMNISEC multidetector GPC/SEC (RI, UV/Vis, RALS 90° + LALS 7°); 22 μL injected at 13.4 mg/mL, 0.5 mL/min, 20 °C, DPBS without Ca2+ and Mg2+; dn/dc 0.185 mL/g; oligomeric state of the enzyme. (Size exclusion chromatography separates by hydrodynamic size, large species first.)

“GH42 β-galactosidase Bbreβgal-III from Bifidobacterium breve DSM 20213 (enzyme)”: the stoichiometry N is 3.
